According to patent publication US20230372419A1, “LIVE BIOTHERAPEUTICS SECRETING SYNTHETIC BACTERIOPHAGES IN THE TREATMENT OF CANCER” (TATUM BIOSCIENCE INC., priority 2020, published 2023):

Tests used:
[1] = biological target: T1, CD47 on the surface of A20 mouse lymphoma cells (mouse (A20 mouse lymphoma cells), UniProt Q61735 19-303); assay: pull-down assay on A20 cells
T1 construct: whole, on cells; also called CD47 receptor; CD47 immune checkpoint
T1 sequence (looked up): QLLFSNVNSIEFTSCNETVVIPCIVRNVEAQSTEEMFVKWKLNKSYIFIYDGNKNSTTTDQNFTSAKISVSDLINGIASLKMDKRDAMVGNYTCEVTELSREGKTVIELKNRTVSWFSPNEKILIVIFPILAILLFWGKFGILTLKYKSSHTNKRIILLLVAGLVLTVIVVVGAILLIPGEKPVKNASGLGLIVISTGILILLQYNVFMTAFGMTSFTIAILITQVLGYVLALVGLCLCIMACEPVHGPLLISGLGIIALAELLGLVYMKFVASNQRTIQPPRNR

[2] = biological target: T2, PD-L1 on the surface of A20 cells (mouse (A20 mouse lymphoma cells), UniProt Q9EP73 19-290); assay: flow cytometry on A20 cells, competition with anti-PD-L1-PE (10F.9G2)
T2 construct: whole, on cells; also called PD-L1 receptor; CD274

[3] = biological target: T3, PD-L1 on A20 cells (Mus musculus, UniProt Q9EP73); assay: Binding to PD-L1 on fixed A20 cells by ELISA; conditions: nanobody 1 nM to 10 μM, detection anti-HA-HRP
T3 construct: host or cells: A20 mouse B lymphoma cells (live for flow cytometry, formalin-fixed for ELISA)
Description: Assessment of anti-PD-L1 displaying bacteriophages binding activity on A20 cells by EUSA. A 96 wells plate was prepared by adding in each well 100 μL of PBS comprising 1×10^5 A20 cells. The plate was then incubated 30 min to allow sedimentation of the cells. The plate was then tilted and the PBS was carefully removed. To fix the cells to the plate, 100 μL of 10% formalin was then added, and the plate was incubated for 10 min. The fixed cells were then washed gently with 100 μL of PBS and then blocked by adding 200 μL of PBS (1% BSA, 3% milk), followed a 30 min incubation periode. The blocking buffer was removed and then 100 μL of bacteriophage PEG preparation was added to the wells. The plate was incubated 1 h and then washed three times with 200 μL of PBS. To detect the bacteriophages, 100 μL of anti-HA-HRP (Cell Signaling) 1/500 diluted in PBS (3% milk, 1% BSA) was added and the plate was incubated for 1 h. […] Then, 100 μL from each well was transferred to a new plate and optical density was measured at 450 nm.
Assessment of anti-PD-L1 nanobody binding activity on A20 cells by EISA. […] Then, 100 μL from each well was transferred to a new plate and optical density was measured at 450 nm. […] Tumor sizes were then monitored twice a week using a precise caliper until tumors exceed 1500 mm^3 or until day 24 after the first injection. […]

[4] = biological target: T2, PD-L1 on the surface of A20 cells; assay: ELISA on fixed A20 cells, detection with anti-HA-HRP
[5] = biological target: T4, mice CTLA-4 recombinant protein (R&D systems) (mice, UniProt P09793 36-161); assay: ELISA on coated mouse CTLA-4, detection with anti-pVIII-HRP
T4 construct: Coated on ELISA plates at 10 µg/mL; also called recombinant CTLA-4 protein; CTLA-4 immune checkpoint

T2 sequence (Q9EP73 19-290): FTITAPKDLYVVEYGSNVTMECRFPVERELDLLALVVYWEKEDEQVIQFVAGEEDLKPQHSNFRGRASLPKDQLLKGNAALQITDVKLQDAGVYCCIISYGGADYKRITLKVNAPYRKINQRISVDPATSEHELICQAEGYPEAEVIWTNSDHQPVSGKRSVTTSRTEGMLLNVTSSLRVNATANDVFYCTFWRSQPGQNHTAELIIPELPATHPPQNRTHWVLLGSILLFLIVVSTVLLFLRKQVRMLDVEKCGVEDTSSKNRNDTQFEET
T3 sequence (Q9EP73 19-290): as above

B1: synthetic bacteriophage displaying an anti-CD47 nanobody on pIII (MG1655+pTAT004+pTAT003) (other, not shown: small tags and cut ends; large carriers)
chain: QVQLVESGGGLVEPGGSLRLSCAASGIIFKINDMGWYRQAPGKRREWVAASTGGDEAIYRDSVKDRFTISRDAKNSVFLQMNSLKPEDTAVYYCTAVISTDRDGTEWRRYWGQGTQVTVSSGGLPETGG
notes: also called pTAT003 derived bacteriophages; nbCD47-pIII bacteriophages
- binding result [1]: binds

B2: synthetic bacteriophage displaying an anti-PD-L1 nanobody on pIII (MG1655+pTAT004+pTAT020) (other)
chain: QVQLVETGGGLVQPGGSLRLSCTASGFTFSMHAMTWYRQAPGKQRELVAVITSHGDRANYTDSVRGRFTISRDNTKNMVYLQMNSLKPEDTAVYYCNVPRYDSWGQGTQVTVSSGGLPETGG
notes: Whole phage particle; also called anti-PD-L1 synthetic bacteriophage; not shown: HA-6His dual tag linker; C-terminal fragment of coat protein pIII (gpIII-C) of bacteriophage M13
- binding result [2]: binds

B3: synthetic bacteriophage displaying the anti-PD-L1 nanobody at the N-terminal end of pIII (MG1655+pTAT032) (other)
chain: B2 chain
notes: Single-vector system derived from M13mp18-Kan; also called pTAT32; anti-PD-L1 nanobody on pIII; not shown: C-terminal fragment of coat protein pIII (gpIII-C) of bacteriophage M13
- binding result [2]: binds

B4: purified anti-PD-L1 nanobody: purified anti-PD-L1 nanobody with hexahistidine and HA tags, expressed in BL21 (DE3) (protein)
VHH: B2 chain
modifications: left off: small tags and cut ends
- purified nanobody binding activity on A20 cells (ELISA) [3]: confirmed its binding activity on A20 cells

B5: synthetic bacteriophage displaying the anti-PD-L1 nanobody inserted between the binding domain and the bacteriophage anchor domain of pIII (MG1655+pTAT033) (other)
chain: B2 chain
notes: Single-vector system derived from M13mp18-Kan; whole phage particle, remained infectious; also called anti-PD-L1 nanobody inserted in pIII; not shown: N-terminal part of pIII (D1/D2 domains) of bacteriophage M13; C-terminal part of pIII (gpIII-C, transmembrane region / anchor domain) of bacteriophage M13
- binding result [2]: binds

B6: purified anti-PD-L1 nanobody with hexahistidine and HA tags fused in C-terminal (VHH)
VHH: QVQLVETGGGLVQPGGSLRLSCTASGFTFSMHAMTWYRQAPGKQRELVAVITSHGDRANYTDSVRGRFTISRDNTKNMVYLQMNSLKPEDTAVYYCNVPRYDSWGQGTQVTVSS
notes: Expressed from the pTrcHis vector in E. coli BL21 (DE3), purified on Ni-NTA; also called nbPDL1 (pTAT034); not shown: hexahistidine and HA tags fused in C-terminal
- binding result [4]: binds

B7: synthetic bacteriophage displaying an anti-CTLA-4 anticalin on pIII (MG1655+pTAT004+pTAT030) (other)
chain: QDSTSDLIPAPPLSKVPLQQNFQDNQFHGKWYVVGLAGNRILRDDQHPMNMYATIYELKEDKSYNVTSVISSHKKCEYTIATFVPGSQPGEFTLGNIKSYGDKTSYLVRVVSTDYNQYAMVFFKLAEDNAEFFAITIYGRTKELASELKENFIRFSKSLGLPENHIVFPVPIDQCIDG
notes: Whole phage particle; not shown: HA-6His dual tag linker; C-terminal fragment of coat protein pIII (gpIII-C) of bacteriophage M13
- binding result [5]: binds
